Measurements reported in paper PMC10786891, “Massively parallel profiling of RNA-targeting CRISPR-Cas13d”.

T1: EsCas13d, nuclease-dead (Eubacterium siraeum, UniProt B0MS50, R295A;H300A;R849A;H854A)
T1 sequence: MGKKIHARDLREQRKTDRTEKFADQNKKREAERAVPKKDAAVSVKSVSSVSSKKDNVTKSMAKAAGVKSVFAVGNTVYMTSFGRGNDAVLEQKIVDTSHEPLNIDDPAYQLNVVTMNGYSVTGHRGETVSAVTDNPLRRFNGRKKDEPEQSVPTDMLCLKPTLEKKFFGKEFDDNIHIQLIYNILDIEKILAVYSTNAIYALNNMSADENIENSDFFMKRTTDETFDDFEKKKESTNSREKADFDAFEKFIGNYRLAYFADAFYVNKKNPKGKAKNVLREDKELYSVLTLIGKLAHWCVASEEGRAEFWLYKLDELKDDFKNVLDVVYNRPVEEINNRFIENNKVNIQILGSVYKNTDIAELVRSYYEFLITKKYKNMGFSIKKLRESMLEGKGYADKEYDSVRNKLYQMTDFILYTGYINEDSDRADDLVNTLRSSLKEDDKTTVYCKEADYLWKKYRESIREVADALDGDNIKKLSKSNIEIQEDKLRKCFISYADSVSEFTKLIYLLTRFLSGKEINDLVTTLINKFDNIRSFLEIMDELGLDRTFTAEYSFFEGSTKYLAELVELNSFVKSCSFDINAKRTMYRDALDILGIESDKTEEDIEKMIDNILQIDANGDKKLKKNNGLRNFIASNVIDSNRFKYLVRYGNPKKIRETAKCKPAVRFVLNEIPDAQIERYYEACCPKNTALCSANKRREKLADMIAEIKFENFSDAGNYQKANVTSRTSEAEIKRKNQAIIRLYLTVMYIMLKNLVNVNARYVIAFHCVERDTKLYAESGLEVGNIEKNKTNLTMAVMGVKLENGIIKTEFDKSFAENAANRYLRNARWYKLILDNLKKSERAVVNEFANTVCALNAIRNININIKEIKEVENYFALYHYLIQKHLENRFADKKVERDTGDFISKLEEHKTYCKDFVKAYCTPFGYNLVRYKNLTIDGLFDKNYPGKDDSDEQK


These binders were tested against T1, EsCas13d, nuclease-dead (assay: crRNA (strand 1, pre-loaded); Mg2+; 40 mM Tris-HCl pH 7.5, 150 mM NaCl, 6 mM MgCl2, 1 mM DTT, 0.1% Tween-20, 0.2 mg/ml BSA; 25 C; 10 min per concentration, then washed). Details: tags: His6-TwinStrep-SUMO cleaved; N-terminal SNAP kept (SNAP-Surface 488); label: 3' end held by stalled T7 RNA polymerase.

Row | Binder | Kd [nM]
1 | target 1 MT 5'PFS GUG 3'PFS CCU (mixed) RNA 1: CACCCGUGCAAAAAUGCAGGGGUCUAAAACUGAGCGGAUAACCUCUCUAUGG RNA 2: GGGAAUGGAUCCACAUCUACGAAUUCGUGCCAUAGAGAGGUUAUCCGCUCACCUAGAUCGGAAGAGCACACGU | 10.6 ± 1.1
2 | target 1 MT 5'PFS CCU 3'PFS CAA (mixed) RNA 1: CACCCGUGCAAAAAUGCAGGGGUCUAAAACUGAGCGGAUAACCUCUCUAUGG RNA 2: GGGAAUGGAUCCACAUCUACGAAUUCCCUCCAUAGAGAGGUUAUCCGCUCACAAAGAUCGGAAGAGCACACGU | 55 ± 19
3 | target 1 MT 5'PFS GCA 3'PFS CUC (mixed) RNA 1: CACCCGUGCAAAAAUGCAGGGGUCUAAAACUGAGCGGAUAACCUCUCUAUGG RNA 2: GGGAAUGGAUCCACAUCUACGAAUUCGCACCAUAGAGAGGUUAUCCGCUCACUCAGAUCGGAAGAGCACACGU | ~19.5
4 | target 1 MT 5'PFS GCA 3'PFS CUG (mixed) RNA 1: CACCCGUGCAAAAAUGCAGGGGUCUAAAACUGAGCGGAUAACCUCUCUAUGG RNA 2: GGGAAUGGAUCCACAUCUACGAAUUCGCACCAUAGAGAGGUUAUCCGCUCACUGAGAUCGGAAGAGCACACGU | 11.9 ± 3.35
5 | target 1 MT 5'PFS GUG 3'PFS CCG (mixed) RNA 1: CACCCGUGCAAAAAUGCAGGGGUCUAAAACUGAGCGGAUAACCUCUCUAUGG RNA 2: GGGAAUGGAUCCACAUCUACGAAUUCGUGCCAUAGAGAGGUUAUCCGCUCACCGAGAUCGGAAGAGCACACGU | 11.7 ± 1.05
6 | target 1 MT 5'PFS CCU 3'PFS CAC (mixed) RNA 1: CACCCGUGCAAAAAUGCAGGGGUCUAAAACUGAGCGGAUAACCUCUCUAUGG RNA 2: GGGAAUGGAUCCACAUCUACGAAUUCCCUCCAUAGAGAGGUUAUCCGCUCACACAGAUCGGAAGAGCACACGU | 15.2 ± 5.15
7 | target 1 MT 5'PFS GUG 3'PFS CCA (mixed) RNA 1: CACCCGUGCAAAAAUGCAGGGGUCUAAAACUGAGCGGAUAACCUCUCUAUGG RNA 2: GGGAAUGGAUCCACAUCUACGAAUUCGUGCCAUAGAGAGGUUAUCCGCUCACCAAGAUCGGAAGAGCACACGU | 46 ± 7.5
8 | target 1 insU 3' of 18,insA 3' of 12 (mixed) RNA 1: CACCCGUGCAAAAAUGCAGGGGUCUAAAACUGAGCGGAUAACCUCUCUAUGG RNA 2: GGGAAUGGAUCCACAUCUACGAAUUCGUACCAUAUGAGAGGAUUAUCCGCUCACCGAGAUCGGAAGAGCACACGU | 63 ± 14
9 | target 1 MT 5'PFS CAU 3'PFS UCU (mixed) RNA 1: CACCCGUGCAAAAAUGCAGGGGUCUAAAACUGAGCGGAUAACCUCUCUAUGG RNA 2: GGGAAUGGAUCCACAUCUACGAAUUCCAUCCAUAGAGAGGUUAUCCGCUCAUCUAGAUCGGAAGAGCACACGU | ~65
10 | target 1 MT 5'PFS CCC 3'PFS AUU (mixed) RNA 1: CACCCGUGCAAAAAUGCAGGGGUCUAAAACUGAGCGGAUAACCUCUCUAUGG RNA 2: GGGAAUGGAUCCACAUCUACGAAUUCCCCCCAUAGAGAGGUUAUCCGCUCAAUUAGAUCGGAAGAGCACACGU | ~8
11 | target 1 MT 5'PFS UGC 3'PFS AUC (mixed) RNA 1: CACCCGUGCAAAAAUGCAGGGGUCUAAAACUGAGCGGAUAACCUCUCUAUGG RNA 2: GGGAAUGGAUCCACAUCUACGAAUUCUGCCCAUAGAGAGGUUAUCCGCUCAAUCAGAUCGGAAGAGCACACGU | 52.5 ± 23
12 | target 1 MT 5'PFS CAU 3'PFS UCA (mixed) RNA 1: CACCCGUGCAAAAAUGCAGGGGUCUAAAACUGAGCGGAUAACCUCUCUAUGG RNA 2: GGGAAUGGAUCCACAUCUACGAAUUCCAUCCAUAGAGAGGUUAUCCGCUCAUCAAGAUCGGAAGAGCACACGU | ~35
13 | target 1 MT 5'PFS UGC 3'PFS AUU (mixed) RNA 1: CACCCGUGCAAAAAUGCAGGGGUCUAAAACUGAGCGGAUAACCUCUCUAUGG RNA 2: GGGAAUGGAUCCACAUCUACGAAUUCUGCCCAUAGAGAGGUUAUCCGCUCAAUUAGAUCGGAAGAGCACACGU | 18.6 ± 5.1
14 | target 1 MT 5'PFS GGA 3'PFS AUG (mixed) RNA 1: CACCCGUGCAAAAAUGCAGGGGUCUAAAACUGAGCGGAUAACCUCUCUAUGG RNA 2: GGGAAUGGAUCCACAUCUACGAAUUCGGACCAUAGAGAGGUUAUCCGCUCAAUGAGAUCGGAAGAGCACACGU | 34.5 ± 6.5
15 | target 1 MT 5'PFS GGA 3'PFS AUC (mixed) RNA 1: CACCCGUGCAAAAAUGCAGGGGUCUAAAACUGAGCGGAUAACCUCUCUAUGG RNA 2: GGGAAUGGAUCCACAUCUACGAAUUCGGACCAUAGAGAGGUUAUCCGCUCAAUCAGAUCGGAAGAGCACACGU | 22.5 ± 9
16 | target 1 MT 5'PFS UGC 3'PFS AUA (mixed) RNA 1: CACCCGUGCAAAAAUGCAGGGGUCUAAAACUGAGCGGAUAACCUCUCUAUGG RNA 2: GGGAAUGGAUCCACAUCUACGAAUUCUGCCCAUAGAGAGGUUAUCCGCUCAAUAAGAUCGGAAGAGCACACGU | 16.5 ± 6
17 | target 1 MT 5'PFS UGC 3'PFS AUG (mixed) RNA 1: CACCCGUGCAAAAAUGCAGGGGUCUAAAACUGAGCGGAUAACCUCUCUAUGG RNA 2: GGGAAUGGAUCCACAUCUACGAAUUCUGCCCAUAGAGAGGUUAUCCGCUCAAUGAGAUCGGAAGAGCACACGU | ~55.5
18 | target 1 MT 5'PFS CAC 3'PFS UUU (mixed) RNA 1: CACCCGUGCAAAAAUGCAGGGGUCUAAAACUGAGCGGAUAACCUCUCUAUGG RNA 2: GGGAAUGGAUCCACAUCUACGAAUUCCACCCAUAGAGAGGUUAUCCGCUCAUUUAGAUCGGAAGAGCACACGU | 7.15 ± 2.4
19 | target 1 MT 5'PFS CCC 3'PFS AUG (mixed) RNA 1: CACCCGUGCAAAAAUGCAGGGGUCUAAAACUGAGCGGAUAACCUCUCUAUGG RNA 2: GGGAAUGGAUCCACAUCUACGAAUUCCCCCCAUAGAGAGGUUAUCCGCUCAAUGAGAUCGGAAGAGCACACGU | 31 ± 14
20 | target 1 MT 5'PFS CCU 3'PFS CAG (mixed) RNA 1: CACCCGUGCAAAAAUGCAGGGGUCUAAAACUGAGCGGAUAACCUCUCUAUGG RNA 2: GGGAAUGGAUCCACAUCUACGAAUUCCCUCCAUAGAGAGGUUAUCCGCUCACAGAGAUCGGAAGAGCACACGU | ~26
21 | target 1 MT 5'PFS GUG 3'PFS CCC (mixed) RNA 1: CACCCGUGCAAAAAUGCAGGGGUCUAAAACUGAGCGGAUAACCUCUCUAUGG RNA 2: GGGAAUGGAUCCACAUCUACGAAUUCGUGCCAUAGAGAGGUUAUCCGCUCACCCAGAUCGGAAGAGCACACGU | 23 ± 4
22 | target 1 MT 5'PFS GGA 3'PFS AUU (mixed) RNA 1: CACCCGUGCAAAAAUGCAGGGGUCUAAAACUGAGCGGAUAACCUCUCUAUGG RNA 2: GGGAAUGGAUCCACAUCUACGAAUUCGGACCAUAGAGAGGUUAUCCGCUCAAUUAGAUCGGAAGAGCACACGU | 17.6 ± 3.55
23 | target 1 MT 5'PFS GGA 3'PFS AUA (mixed) RNA 1: CACCCGUGCAAAAAUGCAGGGGUCUAAAACUGAGCGGAUAACCUCUCUAUGG RNA 2: GGGAAUGGAUCCACAUCUACGAAUUCGGACCAUAGAGAGGUUAUCCGCUCAAUAAGAUCGGAAGAGCACACGU | 29 ± 7
24 | target 1 insA 3' of 11,insC 3' of 8 (mixed) RNA 1: CACCCGUGCAAAAAUGCAGGGGUCUAAAACUGAGCGGAUAACCUCUCUAUGG RNA 2: GGGAAUGGAUCCACAUCUACGAAUUCGUACCAUAGAGAGGUAUAUCCCGCUCACCGAGAUCGGAAGAGCACACGU | 16.7 ± 1.1
25 | target 1 U8C,U19C (mixed) RNA 1: CACCCGUGCAAAAAUGCAGGGGUCUAAAACUGAGCGGAUAACCUCUCUAUGG RNA 2: GGGAAUGGAUCCACAUCUACGAAUUCGUACCACAGAGAGGUUACCCGCUCACCGAGAUCGGAAGAGCACACGU | 41.1 ± 2.3
26 | target 1 MT 5'PFS GGC 3'PFS AGC (mixed) RNA 1: CACCCGUGCAAAAAUGCAGGGGUCUAAAACUGAGCGGAUAACCUCUCUAUGG RNA 2: GGGAAUGGAUCCACAUCUACGAAUUCGGCCCAUAGAGAGGUUAUCCGCUCAAGCAGAUCGGAAGAGCACACGU | 9.95 ± 1.75
27 | target 1 MT 5'PFS CAA 3'PFS ACC (mixed) RNA 1: CACCCGUGCAAAAAUGCAGGGGUCUAAAACUGAGCGGAUAACCUCUCUAUGG RNA 2: GGGAAUGGAUCCACAUCUACGAAUUCCAACCAUAGAGAGGUUAUCCGCUCAACCAGAUCGGAAGAGCACACGU | 14.8 ± 5.05
28 | target 1 MT 5'PFS AUG 3'PFS AUU (mixed) RNA 1: CACCCGUGCAAAAAUGCAGGGGUCUAAAACUGAGCGGAUAACCUCUCUAUGG RNA 2: GGGAAUGGAUCCACAUCUACGAAUUCAUGCCAUAGAGAGGUUAUCCGCUCAAUUAGAUCGGAAGAGCACACGU | 11.4 ± 2.5
